Experimental data: publication PMC10127515, “Biocatalytic Synthesis of Homochiral 2-Hydroxy-4-butyrolactone Derivatives by Tandem Aldol Addition and Carbonyl Reduction” (ACS Catalysis, 2023)

Key:
[1] = molecular target: T1, KPREcoli (ketopantoate reductase from E. coli) (Escherichia coli, UniProt P0A9J4); test: NADPH oxidation at […] nm, continuous; format: biochemical; details: NADPH 0.16 mM; 50 mM Tris-HCl pH 8.0; 30 °C; substrate inhibition
T1 construct: gene panE; recombinant wild type; tags and purification only in the supplement
T1 sequence (P0A9J4 1-303): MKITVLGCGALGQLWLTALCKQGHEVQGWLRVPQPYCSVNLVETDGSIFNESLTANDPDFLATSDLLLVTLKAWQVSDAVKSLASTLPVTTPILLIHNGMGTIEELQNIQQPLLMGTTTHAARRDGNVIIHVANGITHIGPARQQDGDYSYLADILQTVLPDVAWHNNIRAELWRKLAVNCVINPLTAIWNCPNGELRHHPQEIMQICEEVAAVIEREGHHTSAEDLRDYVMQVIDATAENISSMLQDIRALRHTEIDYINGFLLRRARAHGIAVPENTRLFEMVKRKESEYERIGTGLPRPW

purified protein [2] = substrate: CC[C@@H](CO)C(=O)C(=O)O; test: purified protein; format: biochemical, Pseudomonas syringae group genomosp. 3; details: NADPH 0.16 mM, 50 mM Tris-HCl pH 8.0, 30 °C
purified protein [3] = substrate: C[C@@H](CO)C(=O)C(=O)O; test: purified protein; format: biochemical, Pseudomonas syringae group genomosp. 3; details: NADPH 0.16 mM, 50 mM Tris-HCl pH 8.0, 30 °C
purified protein [4] = substrate: C[C@H](CO)C(=O)C(=O)O; test: purified protein; format: biochemical, Pseudomonas syringae group genomosp. 3; details: NADPH 0.16 mM, 50 mM Tris-HCl pH 8.0, 30 °C
purified protein [5] = substrate: O=C(O)C(=O)CCO; test: purified protein; format: biochemical, Pseudomonas syringae group genomosp. 3; details: NADPH 0.16 mM, 50 mM Tris-HCl pH 8.0, 30 °C
purified protein [6] = substrate: O=C(O)C(=O)C[C@@H](O)CO; test: purified protein; format: biochemical, Pseudomonas syringae group genomosp. 3; details: NADPH 0.16 mM, 50 mM Tris-HCl pH 8.0, 30 °C
purified protein [7] = substrate: C=CC[C@@H](CO)C(=O)C(=O)O; test: purified protein; format: biochemical, Escherichia coli; details: NADPH 0.16 mM, 50 mM Tris-HCl pH 8.0, 30 °C
purified protein [8] = substrate: C=CC[C@H](CO)C(=O)C(=O)O; test: purified protein; format: biochemical, Escherichia coli; details: NADPH 0.16 mM, 50 mM Tris-HCl pH 8.0, 30 °C
purified protein [9] = substrate: CC(C)(CO)C(=O)C(=O)O; test: purified protein; format: biochemical, Escherichia coli; details: NADPH 0.16 mM, 50 mM Tris-HCl pH 8.0, 30 °C
purified protein [10] = substrate: CC(C)[C@@H](CO)C(=O)C(=O)O; test: purified protein; format: biochemical, Escherichia coli; details: NADPH 0.16 mM, 50 mM Tris-HCl pH 8.0, 30 °C
purified protein [11] = substrate: CC[C@@H](CO)C(=O)C(=O)O; test: purified protein; format: biochemical, Escherichia coli; details: NADPH 0.16 mM, 50 mM Tris-HCl pH 8.0, 30 °C
purified protein [12] = substrate: CC[C@H](CO)C(=O)C(=O)O; test: purified protein; format: biochemical, Escherichia coli; details: NADPH 0.16 mM, 50 mM Tris-HCl pH 8.0, 30 °C
purified protein [13] = substrate: COCC[C@H](CO)C(=O)C(=O)O; test: purified protein; format: biochemical, Escherichia coli; details: NADPH 0.16 mM, 50 mM Tris-HCl pH 8.0, 30 °C
purified protein [14] = substrate: C[C@@H](CO)C(=O)C(=O)O; test: purified protein; format: biochemical, Escherichia coli; details: NADPH 0.16 mM, 50 mM Tris-HCl pH 8.0, 30 °C
purified protein [15] = substrate: C[C@H](CO)C(=O)C(=O)O; test: purified protein; format: biochemical, Escherichia coli; details: NADPH 0.16 mM, 50 mM Tris-HCl pH 8.0, 30 °C
purified protein [16] = substrate: O=C(O)C(=O)C1(CO)CCC1; test: purified protein; format: biochemical, Escherichia coli; details: NADPH 0.16 mM, 50 mM Tris-HCl pH 8.0, 30 °C
purified protein [17] = substrate: O=C(O)C(=O)C1(CO)CCCC1; test: purified protein; format: biochemical, Escherichia coli; details: NADPH 0.16 mM, 50 mM Tris-HCl pH 8.0, 30 °C
purified protein [18] = substrate: O=C(O)C(=O)CCO; test: purified protein; format: biochemical, Escherichia coli; details: NADPH 0.16 mM, 50 mM Tris-HCl pH 8.0, 30 °C

Q: O=C(O)C(=O)C1(CO)CCCC1 [3l] was tested. Which “KPREcoli ^b / ksi^app” value [1] did it give?
A: 28 ± 4 mM

Q: Which “KPREcoli ^b / ksi^app” value [1] does the source give for CC(C)(CO)C(=O)C(=O)O [3j, ketopantoate] here?
A: 3.9 ± 1.3 mM

Q: Which “KPREcoli ^b / ksi^app” value [1] does the source give for O=C(O)C(=O)C1(CO)CCC1 [3k] here?
A: 6.6 ± 1.5 mM

B1: DpkAPsyrin (Δ1-piperidine-2-carboxylate/Δ1-pyrroline-2-carboxylate reductase) (Pseudomonas syringae pv. tomato) (protein)
chain: MSASHADQPTQTVSYPQLIDLLRRIFVVHGTSPEVADVLAENCASAQRDGSHSHGIFRIPGYLSSLASGWVDGKAVPVVEDVGAAFVRVDACNGFAQPALAAARSLLIDKARSAGVAILAIRGSHHFAALWPDVEPFAEQGLVALSMVNSMTCVVPHGARQPLFGTNPIAFGAPRAGGEPIVFDLATSAIAHGDVQIAAREGRLLPAGMGVDRDGLPTQEPRAILDGGALLPFGGHKGSALSMMVELLAAGLTGGNFSFEFDWSKHPGAQTPWTGQLLIVIDPDKGAGQHFAQRSEELVRQLHGVGQERLPGDRRYLERARSMAHGIVIAQADLERLQELAGH
notes: recombinant wild type; tags and purification only in the supplement
Q: For B1, which Km (purified protein [2]) is on record?
A: 14 ± 2 mM

Q: And the kcat (purified protein [2])?
A: 0.00383 ± 0.00017 s⁻¹

Q: What about the kcat/Km (purified protein [2]) of the same molecule?
A: 0.267 M⁻¹ s⁻¹

Q: What about the Km (purified protein [3]) of the same molecule?
A: 19 ± 4 mM

Q: What about the kcat (purified protein [3]) of the same molecule?
A: 0.0183 ± 0.0017 s⁻¹

Q: What about the kcat/Km (purified protein [3]) of the same molecule?
A: 0.967 M⁻¹ s⁻¹

Q: And the Km (purified protein [4])?
A: 7.5 ± 1.9 mM

Q: What about the kcat (purified protein [4]) of the same molecule?
A: 4e-05 ± 3.3e-06 s⁻¹

Q: And the Km (purified protein [5])?
A: 33 ± 7 mM

Q: What about the kcat (purified protein [5]) of the same molecule?
A: 0.0283 ± 0.0033 s⁻¹

Q: What about the kcat/Km (purified protein [5]) of the same molecule?
A: 0.867 M⁻¹ s⁻¹

Q: And the Km (purified protein [6])?
A: 11 ± 1 mM

Q: And the kcat (purified protein [6])?
A: 0.05 ± 0.00033 s⁻¹

Q: And the kcat/Km (purified protein [6])?
A: 4.67 M⁻¹ s⁻¹

B2: KPREcoli (ketopantoate reductase from E. coli) (Escherichia coli K-12) (protein)
chain: MKITVLGCGALGQLWLTALCKQGHEVQGWLRVPQPYCSVNLVETDGSIFNESLTANDPDFLATSDLLLVTLKAWQVSDAVKSLASTLPVTTPILLIHNGMGTIEELQNIQQPLLMGTTTHAARRDGNVIIHVANGITHIGPARQQDGDYSYLADILQTVLPDVAWHNNIRAELWRKLAVNCVINPLTAIWNCPNGELRHHPQEIMQICEEVAAVIEREGHHTSAEDLRDYVMQVIDATAENISSMLQDIRALRHTEIDYINGFLLRRARAHGIAVPENTRLFEMVKRKESEYERIGTGLPRPW
notes: as for B1
Q: What does the source list for B2?
A: Km (purified protein [7]): 9.5 ± 1.7 mM; kcat (purified protein [7]): 1.48 ± 0.1 s⁻¹; kcat/Km (purified protein [7]): 157 M⁻¹ s⁻¹; Km (purified protein [8]): 9.5 ± 1.5 mM; kcat (purified protein [8]): 1.5 ± 0.083 s⁻¹; kcat/Km (purified protein [8]): 157 M⁻¹ s⁻¹; Km (purified protein [9]): 0.4 ± 0.2 mM; kcat (purified protein [9]): 74.28 ± 13.6 s⁻¹; kcat/Km (purified protein [9]): 179000 ± 76500 M⁻¹ s⁻¹; Km (purified protein [10]): 13 ± 2 mM; kcat (purified protein [10]): 17.02 ± 1.15 s⁻¹; kcat/Km (purified protein [10]): 1280 M⁻¹ s⁻¹; Km (purified protein [11]): 3.0 ± 0.5 mM; kcat (purified protein [11]): 15.4 ± 0.617 s⁻¹; kcat/Km (purified protein [11]): 5230 M⁻¹ s⁻¹; Km (purified protein [12]): 7 ± 1 mM; kcat (purified protein [12]): 11.7 ± 0.567 s⁻¹; kcat/Km (purified protein [12]): 1770 M⁻¹ s⁻¹; Km (purified protein [13]): 18 ± 3 mM; kcat (purified protein [13]): 0.0983 ± 0.0083 s⁻¹; kcat/Km (purified protein [13]): 5.67 M⁻¹ s⁻¹; Km (purified protein [14]): 12.9 ± 1.4 mM; kcat (purified protein [14]): 5.8 ± 0.25 s⁻¹; kcat/Km (purified protein [14]): 450 M⁻¹ s⁻¹; Km (purified protein [15]): 4.8 ± 0.4 mM; kcat (purified protein [15]): 89.17 ± 2.3 s⁻¹; kcat/Km (purified protein [15]): 18500 M⁻¹ s⁻¹; Km (purified protein [16]): 1.5 ± 0.5 mM; kcat (purified protein [16]): 113.2 ± 17.03 s⁻¹; kcat/Km (purified protein [16]): 73800 M⁻¹ s⁻¹; Km (purified protein [17]): 0.2 ± 0.1 mM; kcat (purified protein [17]): 19.43 ± 1.12 s⁻¹; kcat/Km (purified protein [17]): 92800 M⁻¹ s⁻¹; Km (purified protein [18]): 4.9 ± 1.2 mM; kcat (purified protein [18]): 0.118 ± 0.0083 s⁻¹; kcat/Km (purified protein [18]): 25 M⁻¹ s⁻¹
